Experimental data as given in the supplement of paper PMC7125110.
± gives the standard error. Fewer inactive variants are shown than the library holds.

B1: glmS ribozyme (parent)
chain: AUAAAAGCGCCAGAACUACAGAAAUGUAGUUGACGAGGAGGAGGUUUAUCGAAUUUUCGGCGGAUGCCUCCAAA

Tests used:
Conditions in all cases: with glucosamine-6-phosphate
glucosamine-6-phosphate [1] = variants of: B1; assay: self-cleavage kobs at 40 uM GlcN6P; higher = faster cleavage; RNA array
How it was run: (§1)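 Glucosamine-6-phosphate in HEPES/KCl/Mg(OAc)2 buffer, at 40 μM to 10 mM, was flowed over barcoded ribozyme variants transcribed in situ by E. coli RNA polymerase on sequenced MiSeq chips. Tracking was through a hybridised Cy3 probe at 37 °C. kobs, kcat and KM came from exponential decay fits and weighted Michaelis–Menten fits of normalised per-tile medians.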

glucosamine-6-phosphate [2] = variants of: B1; assay: self-cleavage kobs at 160 uM GlcN6P; higher = faster cleavage; RNA array
How it was run: as §1

glucosamine-6-phosphate [3] = variants of: B1; assay: self-cleavage kobs at 640 uM GlcN6P; higher = faster cleavage; RNA array
How it was run: as §1

glucosamine-6-phosphate [4] = variants of: B1; assay: self-cleavage kobs at 2500 uM GlcN6P; higher = faster cleavage; RNA array
How it was run: as §1

glucosamine-6-phosphate [5] = variants of: B1; assay: self-cleavage kobs at 10000 uM GlcN6P; higher = faster cleavage; RNA array
How it was run: as §1

Variant | self-cleavage kobs at 40 uM GlcN6P (glucosamine-6-phosphate [1]) [s⁻¹] | self-cleavage kobs at 160 uM GlcN6P (glucosamine-6-phosphate [2]) [s⁻¹] | self-cleavage kobs at 640 uM GlcN6P (glucosamine-6-phosphate [3]) [s⁻¹] | self-cleavage kobs at 2500 uM GlcN6P (glucosamine-6-phosphate [4]) [s⁻¹] | self-cleavage kobs at 10000 uM GlcN6P (glucosamine-6-phosphate [5]) [s⁻¹]
G7C A42C C61U | < 1e-05 | – | – | – | –
A36G U56C | < 1e-05 | < 1e-05 | < 1e-05 | < 1e-05 | –
A14U G37A A39C G59C | < 1e-05 | – | – | – | –
U49C G63A A64C | < 1e-05 | – | – | – | –
G38A G41U | < 1e-05 | < 1e-05 | < 1e-05 | – | < 1e-05
A42G G60A C70G | < 1e-05 | – | – | – | –
A39G U69A | 8.49e-05 ± 1.6e-05 | 9.95e-05 ± 2.2e-05 | 0.000395 ± 6.6e-05 | 0.000452 ± 0.00012 | 0.000139 ± 2.2e-05
G60U C61U | < 1e-05 | – | < 1e-05 | – | < 1e-05
A6G C8U | < 1e-05 | – | – | < 1e-05 | < 1e-05
C11A G29U G32U G44A | < 1e-05 | – | – | – | –
G7U G40C G43C | < 1e-05 | – | – | – | < 1e-05
A15U G40U G44A | < 1e-05 | – | – | – | < 1e-05
C10U G37U | < 1e-05 | – | < 1e-05 | – | < 1e-05
C10A U31G A42U C50G U56A G60U C68G C71A | 4.77e-05 ± 2e-05 | – | 0.00298 ± 0.00084 | – | –
G7U G51C | < 1e-05 | – | < 1e-05 | < 1e-05 | –
A15U C34U | < 1e-05 | < 1e-05 | < 1e-05 | < 1e-05 | –
G29U U30G G43C C68G | 0.000152 ± 2.6e-05 | – | – | – | 0.0065 ± 0.0015
A15C C71A | 3.98e-05 ± 9.4e-06 | 8.22e-05 ± 3.4e-05 | 0.000136 ± 5.9e-05 | 0.000291 ± 7.5e-05 | 0.00151 ± 0.00019
C8A G35C G66A C70G | < 1e-05 | – | – | – | < 1e-05
A6U A33U G38U | < 1e-05 | < 1e-05 | < 1e-05 | – | –
G43U A53U U65G | < 1e-05 | – | < 1e-05 | – | –
C16U U55A | 0.000949 ± 0.00012 | 0.00192 ± 0.00041 | 0.00568 ± 0.0014 | 0.0131 ± 0.0022 | 0.0419 ± 0.0089
A14C A36G A48U G59A | < 1e-05 | – | < 1e-05 | < 1e-05 | < 1e-05
A42U A48C | < 1e-05 | < 1e-05 | < 1e-05 | < 1e-05 | –

Variant | self-cleavage kobs at 40 uM GlcN6P (glucosamine-6-phosphate [1]) [s⁻¹] | self-cleavage kobs at 160 uM GlcN6P (glucosamine-6-phosphate [2]) [s⁻¹] | self-cleavage kobs at 640 uM GlcN6P (glucosamine-6-phosphate [3]) [s⁻¹] | self-cleavage kobs at 2500 uM GlcN6P (glucosamine-6-phosphate [4]) [s⁻¹] | self-cleavage kobs at 10000 uM GlcN6P (glucosamine-6-phosphate [5]) [s⁻¹]
C10G U30A C71G | < 1e-05 | – | – | – | –
G9U G35C G66U | < 1e-05 | – | – | – | < 1e-05
G7U G44U | < 1e-05 | < 1e-05 | < 1e-05 | – | < 1e-05
C10G G13A U47G | < 1e-05 | – | – | – | –
G7C A14G G38C U54G | < 1e-05 | – | – | – | –
U30A A39U C67G C68G | 0.000113 ± 2.1e-05 | – | – | – | 8.62e-05 ± 1.7e-05
U31A C50U | < 1e-05 | < 1e-05 | – | – | –
A6G A33G G35U C68G C70U | 6.36e-05 ± 1.8e-05 | – | – | – | 0.000167 ± 3.1e-05
A39G G51U | < 1e-05 | < 1e-05 | < 1e-05 | < 1e-05 | < 1e-05
G7U A52G C71U | < 1e-05 | – | – | – | –
G43U A52U | < 1e-05 | < 1e-05 | – | – | –
C10G U49G G60C | < 1e-05 | – | < 1e-05 | – | –
U30C U31A G35U G37C | < 1e-05 | – | – | – | –
C10G G32C A48U | < 1e-05 | – | – | – | < 1e-05
G37A A48G | < 1e-05 | < 1e-05 | – | – | –
A39C C50A G60A C61U U65A | < 1e-05 | – | – | – | < 1e-05
G7U G9C A42G A52U | < 1e-05 | – | < 1e-05 | – | –
C10A C11U | < 1e-05 | < 1e-05 | – | < 1e-05 | < 1e-05
C10G U47C U54C | < 1e-05 | – | – | < 1e-05 | –
G51U A53G A64G U65G | < 1e-05 | – | – | – | < 1e-05
G32A U47A | 0.000103 ± 2.6e-05 | 8.74e-05 ± 1.8e-05 | – | 0.000897 ± 0.00019 | 0.00237 ± 0.00046
A36U U47C | < 1e-05 | < 1e-05 | < 1e-05 | – | < 1e-05
A6G G44U C61U | < 1e-05 | < 1e-05 | < 1e-05 | < 1e-05 | < 1e-05
G32C G44A | < 1e-05 | < 1e-05 | < 1e-05 | < 1e-05 | < 1e-05

Variant | self-cleavage kobs at 40 uM GlcN6P (glucosamine-6-phosphate [1]) [s⁻¹] | self-cleavage kobs at 160 uM GlcN6P (glucosamine-6-phosphate [2]) [s⁻¹] | self-cleavage kobs at 640 uM GlcN6P (glucosamine-6-phosphate [3]) [s⁻¹] | self-cleavage kobs at 2500 uM GlcN6P (glucosamine-6-phosphate [4]) [s⁻¹] | self-cleavage kobs at 10000 uM GlcN6P (glucosamine-6-phosphate [5]) [s⁻¹]
G63U C67G | < 1e-05 | < 1e-05 | – | – | < 1e-05
A33G A36U | < 1e-05 | < 1e-05 | – | < 1e-05 | < 1e-05
A42G U47G C61U U69G | < 1e-05 | – | – | < 1e-05 | –
C11A A14C G63C U69C | < 1e-05 | – | – | – | –
G35A G40C A48G G62U G63C | < 1e-05 | – | – | – | –
G7A U30G U45G C67G C68A | 0.000126 ± 4e-05 | – | – | – | 0.00014 ± 3.6e-05
G13C G35U G41U G43A G60C | < 1e-05 | – | – | – | –
G40U A42U C61A | < 1e-05 | – | – | – | < 1e-05
C10G A53U G59A C70G | < 1e-05 | – | – | – | < 1e-05
G37U U54G A64U | < 1e-05 | – | – | – | < 1e-05
G7A A12G U30C U49A C71U | < 1e-05 | – | – | – | –
C34G G41U C58U | < 1e-05 | – | – | – | < 1e-05
C8A G62A | < 1e-05 | < 1e-05 | < 1e-05 | – | < 1e-05
C8A C11U U46C A53U | < 1e-05 | – | – | – | –
A12U G37C A42U A48C | < 1e-05 | – | – | – | –
A15C C50G A53G | 7e-05 ± 2.9e-05 | – | – | – | –
U55G C67U | 0.000342 ± 3.5e-05 | 0.000573 ± 9.2e-05 | 0.000864 ± 0.00017 | 0.00136 ± 0.00026 | 0.0121 ± 0.0017
U46G C61U | < 1e-05 | < 1e-05 | < 1e-05 | – | –
A12G U30A A42G U54C | < 1e-05 | – | – | – | 6.88e-05 ± 2.4e-05
G38A A52G | < 1e-05 | – | < 1e-05 | < 1e-05 | < 1e-05
A33G G35C C70G | 0.000358 ± 8.4e-05 | – | – | – | 0.000163 ± 4.5e-05
G7A C50G C68A | 9.01e-05 ± 1.9e-05 | – | – | – | 0.000134 ± 2.4e-05
G13C A33C G41U | < 1e-05 | < 1e-05 | < 1e-05 | < 1e-05 | < 1e-05
C8G C58A | < 1e-05 | < 1e-05 | < 1e-05 | < 1e-05 | < 1e-05

Variant | self-cleavage kobs at 40 uM GlcN6P (glucosamine-6-phosphate [1]) [s⁻¹] | self-cleavage kobs at 160 uM GlcN6P (glucosamine-6-phosphate [2]) [s⁻¹] | self-cleavage kobs at 640 uM GlcN6P (glucosamine-6-phosphate [3]) [s⁻¹] | self-cleavage kobs at 2500 uM GlcN6P (glucosamine-6-phosphate [4]) [s⁻¹] | self-cleavage kobs at 10000 uM GlcN6P (glucosamine-6-phosphate [5]) [s⁻¹]
A15G C34U | < 1e-05 | < 1e-05 | < 1e-05 | < 1e-05 | < 1e-05
A52U G60U C67U | < 1e-05 | – | – | – | < 1e-05
G60A U65C | < 1e-05 | < 1e-05 | – | < 1e-05 | < 1e-05
G40U | 0.000216 ± 1.5e-05 | 0.00045 ± 1.9e-05 | 0.00199 ± 0.0002 | 0.00539 ± 0.00024 | –
G7C C58U | < 1e-05 | – | – | < 1e-05 | < 1e-05
G59U G60C | < 1e-05 | – | < 1e-05 | – | < 1e-05
G59U G60U | < 1e-05 | < 1e-05 | < 1e-05 | < 1e-05 | –
U31G A42U C50U C61G | < 1e-05 | – | – | – | < 1e-05
A6U C11G G29C U45C | < 1e-05 | – | – | – | –
U31C A39U C68A | < 1e-05 | – | < 1e-05 | – | –
U45A C68A | < 1e-05 | < 1e-05 | < 1e-05 | 3.91e-05 ± 1.9e-05 | –
A12C A53G C68U | 6.52e-05 ± 1.6e-05 | – | – | – | –
G9C G66U | < 1e-05 | < 1e-05 | < 1e-05 | < 1e-05 | < 1e-05
G43A G44U | < 1e-05 | < 1e-05 | < 1e-05 | – | < 1e-05
C11G C16A U69G | 6.17e-05 ± 2.3e-05 | – | – | – | 5.6e-05 ± 1.7e-05
C16U U45A | 0.00211 ± 0.00039 | – | 0.0159 ± 0.003 | 0.0183 ± 0.0057 | 0.0689 ± 0.015
A14G U56C C61G | < 1e-05 | – | – | – | < 1e-05
C8G U49A U54C G59U C67A | < 1e-05 | < 1e-05 | < 1e-05 | < 1e-05 | < 1e-05
G9A G44C | < 1e-05 | – | < 1e-05 | < 1e-05 | –
G35U C68A | < 1e-05 | < 1e-05 | < 1e-05 | < 1e-05 | < 1e-05
C11U A33G | < 1e-05 | < 1e-05 | – | < 1e-05 | < 1e-05
U30A U45C A48C | < 1e-05 | – | – | – | –
C8G U54A C67A | < 1e-05 | – | – | – | –
C11A G13C A53U C58G A64U U69A | 7.02e-05 ± 2.7e-05 | – | – | – | –
